± gives the uncertainty stated by the source.

The record followed here is the supplement of paper PMC7877785.

This series can be described thus: self-splicing fitness, log relative to wild type (ln ratio); higher = more splicing; Tetrahymena group I intron in knt gene, E. coli kanamycin selection, DiMSum; sequences stand for … in CUCUCU…GGAGGGAAAAGUUAUCAGGCAUGCACCUGGUAGCUAGUCUUUAAACCAAUAGAUUGCAUCGGUUUAAAAGGCAAGACCGUCAAAUUGCGGGAAAGGGGUCAACAGCCGUUCAGUACCAAGUCUCAGGGGAAACUUUGAGAUGGCCUUGCAAAGGGUAUGGUAAUAAGCUGACGGACAUGGUCCUAACCACGCAGCCAAGUCCUAAGUCAACAGAUCUUCUGUUGAUAUGGAUGCAGUUCACAGACUAAAUGUCGGUCGGGGAAGAUGUAUUCUUCUCAUAAGAUAUAGUCGGACCUCUCCUUAAUGGGAGCUAGCGGAUGAAGUGAUGCAACACUGGAGCCGCUGGGAACUAAUUUGUAUGCGAAAGUAUAUUGAUUAGUUUUGGAGUACUCGUGGUCG
In a few lines: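 A randomised library covering all eight P1ex-region intron nucleotides was built with the intron in the knt kanamycin-resistance gene on pET-22b(+) and held in E. coli BL21(DE3). Cells were grown overnight at 37°C or 30°C on LB agar, with or without 25 μg/mL kanamycin, plus 100 μg/mL carbenicillin, 50 μM IPTG and 0.2% rhamnose, and pooled colonies were amplicon-sequenced on an Illumina HiSeq 2500. DiMSum fitness is the error-weighted combination of wild-type-normalised replicate fold changes, kanamycin versus none.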

Regarding UCACAGCAAUAUUACGACGC, the “self-splicing fitness (ln)” value was -2.07 ± 0.15 (30 °C) and -1.03 ± 0.2 (37 °C). For the sequence UCACAGCAAUAUUACGAUAA, the “self-splicing fitness (ln)” value is, setting by setting: (30 °C) -1.65 ± 0.066; (37 °C) -0.733 ± 0.074. For UCACAGCAAUAUUACGAUGU the same measures were -4.15 ± 0.29 and -1.77 ± 0.17. For UCACAGCAAUAUUACGCCGU the same measures were -4.25 ± 0.46 and -3.02 ± 0.35.

Take UCACAGCAAUAUUACGCGUG: the “self-splicing fitness (ln)” value is -2.87 ± 0.14 (30 °C) and -2.13 ± 0.14 (37 °C). On the same counts, the results for UCACAGCAAUAUUACGGAGC are -2.68 ± 0.15 and -2.04 ± 0.22. On the same counts, the results for UCACAGCAAUAUUACGGCCC are -3.44 ± 0.45 and -1.82 ± 0.44. On the same counts, the results for UCACAGCAAUAUUACGGCUA are -1.64 ± 0.095 and -0.219 ± 0.077.

For UCACAGCAAUAUUACGGCUG, the “self-splicing fitness (ln)” value is -3.35 ± 0.16 (30 °C) and -2.96 ± 0.23 (37 °C). On the same counts, the results for UCACAGCAAUAUUACGGGGA are -1.15 ± 0.065 and 0.015 ± 0.076. For UCACAGCAAUAUUACGGUUU the same measures were -2.56 ± 0.068 and -1.15 ± 0.067.

In the case of UCACAGCAAUAUUACGUAAA, the “self-splicing fitness (ln)” value reads like this: (30 °C) -2.14 ± 0.069; (37 °C) -1.18 ± 0.084. For UCACAGCAAUAUUACGUAGC the same measures were -2.87 ± 0.18 and -1.34 ± 0.21. On the same counts, the results for UCACAGCAAUAUUACGUAGU are -3.38 ± 0.12 and -2.6 ± 0.17. On the same counts, the results for UCACAGCAAUAUUACGUGAA are -2.36 ± 0.1 and -1.4 ± 0.1. For the sequence UCACAGCAAUAUUACGUUUA, the “self-splicing fitness (ln)” value by setting is: (30 °C) -2.53 ± 0.13; (37 °C) -0.819 ± 0.082. UCAGAGCAAUAUUACGAGUU: the “self-splicing fitness (ln)” value is -2.22 ± 0.2 (30 °C) and -0.115 ± 0.27 (37 °C). On the same counts, the results for UCAGAGCAAUAUUACGCAUU are -3.35 ± 0.43 and -0.634 ± 0.19. In the case of UCAGAGCAAUAUUACGCCCU, for the setting “37 °C”, the “self-splicing fitness (ln)” value is -2.21 ± 0.39. On to UCAGAGCAAUAUUACGCGGU, for which the “self-splicing fitness (ln)” value (30 °C) is -4.12 ± 0.33 and the “self-splicing fitness (ln)” value (37 °C) is -3.04 ± 0.32. For UCAGAGCAAUAUUACGGACG the same measures were -3.67 ± 0.44 and -1.58 ± 0.2. On the same counts, the results for UCAGAGCAAUAUUACGGAUU are -3.58 ± 0.19 and -2.68 ± 0.23. On the same counts, the results for UCAGAGCAAUAUUACGGCCC are -2.13 ± 0.39 and -0.0611 ± 0.34.

Turning to UCAGAGCAAUAUUACGGCCU, the “self-splicing fitness (ln)” value by setting is: (30 °C) -2.39 ± 0.34; (37 °C) -2.73 ± 0.31. In the case of UCAGAGCAAUAUUACGGGAA, where the note is “37 °C”, the “self-splicing fitness (ln)” value is -2.4 ± 0.2.

For the sequence UCAGAGCAAUAUUACGGUAA, the “self-splicing fitness (ln)” value runs as follows: (30 °C) -3.7 ± 0.47; (37 °C) -1.85 ± 0.41. As for UCAGAGCAAUAUUACGUACG, the “self-splicing fitness (ln)” value was -1.96 ± 0.24 (30 °C) and -1.96 ± 0.28 (37 °C). For the sequence UCAGAGCAAUAUUACGUACU, the “self-splicing fitness (ln)” value by setting is: (30 °C) -3.35 ± 0.34; (37 °C) -2.24 ± 0.3. On the same counts, the results for UCAGAGCAAUAUUACGUCCA are -3.75 ± 0.47 and -2.25 ± 0.39. On the same counts, the results for UCAGAGCAAUAUUACGUCUG are -2.88 ± 0.12 and -2.35 ± 0.14.

As to UCAGAGCAAUAUUACGUGCU, the “self-splicing fitness (ln)” value is, setting by setting: (30 °C) -3.09 ± 0.2; (37 °C) -3.07 ± 0.28. On the same counts, the results for UCAGAGCAAUAUUACGUGUC are -4.13 ± 0.31 and -2.63 ± 0.23. For UCAGAGCAAUAUUACGUUCU the same measures were -3.86 ± 0.22 and -2.47 ± 0.25. For UCAGAGCAAUAUUACGUUGG the same measures were -3.05 ± 0.21 and -2.9 ± 0.35.
